System: NCI-H292 and Calu-6 tumor tissue
Assay: In vitro binding of biotinylated AP39 to frozen sections of tumor tissue (ExtrAvidin / DAB staining)
Design: species or system human
Details: frozen sections (5-10 μm); NCI-H292 (FIG. 1A) compared to Calu-6 (FIG. 1B)
Experimental: Binding studies were performed in two human NSCLC tumor models in mice: NCI-H292 which is an erlotinib-sensitive epithelial-type model, and Calu-6 which is an erlotinib-resistant mesenchymal-type model.
TCEP-reduced AP39 was biotinylated using 3-(N-maleimidopropionyl) biocytin (Sigma). The in vitro binding of biotinylated AP39 to frozen sections (5-10 μm) of NCI-H292 and Calu-6 tumor tissue was determined by utilizing ExtrAvidin (Sigma) and Liquid DAB Substrate Pack (BioGenex) according to the protocols of the manufacturers.

B1: biotinylated AP39: TCEP-reduced AP39 biotinylated using 3-(N-maleimidopropionyl) biocytin (conjugate)
scFv: EVQLLESGGGLVQPGGSLRLSCAASGFTFSSFSMSWVRQAPGKGLEWVSSISGSSGTTYYADSVKGRFTISRDNSKNTLYLQMNSLRAEDTAVYYCAKPFPYFDYWGQGTLVTVSSGDGSSGGSGGASTGEIVLTQSPGTLSLSPGERATLSCRASQSVSSSFLAWYQQKPGQAPRLLIYYASSRATGIPDRFSGSGSGTDFTLTISRLEPEDFAVYYCQQTGRIPPTFGQGTKVEIKGGGCA
- binding to tumor tissue, NCI-H292 compared to Calu-6: more extensive binding

From patent US20090208410A1, “ED-B FIBRONECTIN AS STRATIFICATION MARKER FOR ANTI-TUMOR DRUGS” (priority 2007, published 2009)
